Measured values as given in paper PMC8971729.

Experiments:
CAR on CHO-CAR cells = CAR on CHO-CAR cells (UniProt P78310); assay: flow cytometry on cells; CHO-CAR cells with serial dilutions of knob protein (0.0001-100 ug/10^5 cells) for 1 h on ice, washed, then stained for CAR with anti-CAR (RmcB) and a labelled secondary antibody; IC50 by non-linear regression; apparent
[1] = target: human CXADR Fc chimera protein (CAR) (human) (UniProt P78310); assay: SPR; BIAcore 3000; DSG2-Fc, CAR-Fc and CD46-His (approximately 500 RU) coupled to a CM5 chip; knob protein injected (178 uM, 5x 1:3 dilutions; single-cycle kinetics from 200 uM); 30 uL/min, PBS, 25 °C; equilibrium KD assuming 1:1 Langmuir binding
[2] = target: Human desmoglein-2 Fc chimera protein (DSG2) (human) (UniProt Q14126); assay: as above
[3] = target: human CD46 protein (His tag) (human) (UniProt P15529); assay: as above
human CD46 protein (His tag) (human), sequence (P15529 35-343): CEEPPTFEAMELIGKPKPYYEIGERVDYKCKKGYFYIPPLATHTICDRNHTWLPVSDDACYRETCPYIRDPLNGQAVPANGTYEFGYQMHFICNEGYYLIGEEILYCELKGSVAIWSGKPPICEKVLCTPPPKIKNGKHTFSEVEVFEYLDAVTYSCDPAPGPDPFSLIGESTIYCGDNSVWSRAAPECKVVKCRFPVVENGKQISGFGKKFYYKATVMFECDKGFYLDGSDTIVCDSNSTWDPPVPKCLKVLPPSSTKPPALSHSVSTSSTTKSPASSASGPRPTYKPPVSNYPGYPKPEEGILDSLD

CAR on CHO-CAR cells, sequence (P78310 20-365): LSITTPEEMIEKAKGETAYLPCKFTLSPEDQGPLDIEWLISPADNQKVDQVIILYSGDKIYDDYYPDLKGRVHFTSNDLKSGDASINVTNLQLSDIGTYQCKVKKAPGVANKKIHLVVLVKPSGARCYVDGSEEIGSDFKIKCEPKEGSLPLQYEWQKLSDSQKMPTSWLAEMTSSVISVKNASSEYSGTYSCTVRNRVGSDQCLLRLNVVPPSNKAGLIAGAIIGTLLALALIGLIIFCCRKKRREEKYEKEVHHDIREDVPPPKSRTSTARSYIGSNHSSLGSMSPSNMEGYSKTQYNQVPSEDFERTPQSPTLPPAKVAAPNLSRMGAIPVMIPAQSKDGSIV
human CXADR Fc chimera protein (CAR) (human), sequence (P78310 20-237, change not shown): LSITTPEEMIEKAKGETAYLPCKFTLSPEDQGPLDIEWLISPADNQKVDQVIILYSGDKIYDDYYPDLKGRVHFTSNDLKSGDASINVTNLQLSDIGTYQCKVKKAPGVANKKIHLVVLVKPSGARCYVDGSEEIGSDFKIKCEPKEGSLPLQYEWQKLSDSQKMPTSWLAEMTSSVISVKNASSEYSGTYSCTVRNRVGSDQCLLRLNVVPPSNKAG
Human desmoglein-2 Fc chimera protein (DSG2) (human), sequence (Q14126 50-609, change not shown): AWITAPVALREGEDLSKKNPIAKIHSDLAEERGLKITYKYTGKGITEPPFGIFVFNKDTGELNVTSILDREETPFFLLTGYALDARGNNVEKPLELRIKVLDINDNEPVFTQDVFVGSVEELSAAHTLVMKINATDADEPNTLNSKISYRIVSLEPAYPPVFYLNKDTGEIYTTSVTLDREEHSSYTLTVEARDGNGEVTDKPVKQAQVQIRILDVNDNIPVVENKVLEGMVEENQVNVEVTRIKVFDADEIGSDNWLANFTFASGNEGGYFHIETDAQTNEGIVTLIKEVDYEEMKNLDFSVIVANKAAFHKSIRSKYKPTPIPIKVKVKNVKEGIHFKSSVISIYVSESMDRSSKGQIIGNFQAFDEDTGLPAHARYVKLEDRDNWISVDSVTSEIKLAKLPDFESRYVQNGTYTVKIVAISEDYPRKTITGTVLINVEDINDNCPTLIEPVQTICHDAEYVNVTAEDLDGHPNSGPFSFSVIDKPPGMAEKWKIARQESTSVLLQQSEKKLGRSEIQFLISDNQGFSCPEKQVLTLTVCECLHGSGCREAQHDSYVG

HAdV-D10 fiber knob protein (domain or fragment)
fold lower apparent affinity than HAdV-C5K (by IC50) (CAR on CHO-CAR cells): 16.5 fold | Kd [1]: 0.44 µM | Kd [2]: 125 µM | Kd [3]: 20 µM
